Where no end group is shown, it is not given here.
B1: VyPAL2 (asparaginyl ligase, active form, SEQ ID NO:1) (protein)
chain: DSIGTRWAVLIAGSKGYHNYRHQADVCHMYQILRKGGVKDENIIVFMYDDIAYNESNPFPGIIINKPGGENVYKGVPKDYTGEDINNVNFLAAILGNKSAIIGGSGKVLDTSPNDHIFIYYADHGAPGKIGMPSKPYLYADDLVDTLKQKAATGTYKSMVFYVEACNAGSMFEGLLPEGTNIYAMAASNSTEGSWITYCPGTPDFPPEFDVCLGDLWSITFLEDCDAHNLRTETVHQQFELVKKKIAYASTVSQYGDIPISKDSLSVYM
B2: butelase-1 (asparaginyl ligase, active form, SEQ ID NO:2) (protein)
chain: VEGTRWAVLVAGSKGYVNYRHQADVCHAYQILKKGGLKDENIIVFMYDDIAYNESNPHPGVIINHPYGSDVYKGVPKDYVGEDINPPNFYAVLLANKSALTGTGSGKVLDSGPNDHVFIYYTDHGGAGVLGMPSKPYIAASDLNDVLKKKHASGTYKSIVFYVESCESGSMFDGLLPEDHNIYVMGASDTGESSWVTYCPLQHPSPPPEYDVCVGDLFSVAWLEDCDVHNLQTETFQQQYEVVKNKTIVALIEDGTHVVQYGDVGLSKQTLFVYMGTDPAN

Columns and labels:
butelase-1 [1] = test: Butelase-1-mediated intermolecular peptide ligation kinetics (HPLC); type: biochemical; conditions: Butelase-1; limiting substrate 50-800 μM, partner peptide constant
Protocol: (§1) FIG. 3. Kinetic studies on VyPAL2- and butelase 1-catalyzed intermolecular ligations. A) Peptide 1 (SEQ ID NO:7) containing the C-terminal NHV sequence was used at varying concentrations (50 — 800 μM) to react with peptide 2 (SEQ ID NO:8) at constant concentration (1 mM); B) Peptide 4 (SEQ ID NO:9) at a constant concentration (1.5 mM) was reacted with the GF-peptide 5 (SEQ ID NO:10) at varying concentrations (50-800 μM). C) Peptide 2 at a constant concentration (1.5 mM) was reacted with the -NGF peptide 7 (SEQ ID NO:11) at varying concentrations (50-800 μM). The ligation product 3 or 6 was confirmed by ESI-MS. The reaction rates were calculated from the consumption of the limiting substrate 1, 5 or 7. Initial rate (V0) at different concentrations of the limiting substrate were used for Michaelis-Menten curve plotting. For each kinetic calculation, a lineweaver-Burk plot was also used to confirm the analysis.
(§2) PAL enzymes have been used extensively for protein single-site labeling and macrocyclization. However, using two PALs of different substrate specificity for bio-orthogonal and dual ligation remains unexplored. […] To determine the differences quantitatively, firstly the kinetics of VyPAL2 and butelase-1 toward peptide 1 or 7 which has a C-terminal NHV or NGF tripeptide motif respectively were studied (Table 1). The nucleophile substrate, used at a constant concentration, was peptide 2 which contains an N-terminal GI dipeptide motif. Reverse-phase analytical HPLC was used to monitor and quantify the ligation reaction. […] Similarly, kinetics of the two ligases towards a GF-starting nucleophile substrate, peptide 5, were also examined.
(§3) In this case, the acyl substrate, now kept at a constant concentration for the kinetic study, was peptide 4 which contains NGL at the C-terminus, a favorable motif for both VyPAL2 and butelase-1. It was shown that VyPAL2 has 5-fold catalytic efficiency than butelase-1 towards the GF-peptide substrate 5 (Table 1 and FIG. 3). In summary, the kinetic studies confirm the differential activities of butelase-1 and VyPAL2 toward certain substrate sequences, which provide strong support for a two-PAL, bio-orthogonal tandem ligation scheme for protein dual labeling.

VyPAL2 = test: VyPAL2-mediated intermolecular peptide ligation kinetics (HPLC); type: biochemical, Viola yedoensis; conditions: for Km / kcat: VyPAL2, limiting substrate 50-800 μM; for Km: partner peptide constant; for kcat: partner peptide constant (1 with 2 at 1 mM; 5 with 4 at 1.5 mM; 7 with 2 at 1.5 mM); for catalytic activity/efficiency of VyPAL2 relative to butelase-1 towards the substrate: intermolecular ligation
Protocol: as §1, §2, §3

butelase-1 [2] = test: Butelase-1-catalyzed peptide cyclization (substrate screen, pH scan, kinetics); type: biochemical; conditions: 25 nM butelase-1, 5 μM peptide, pH 4.5, 25° C., 60 min
Protocol: FIG. 9. Screening of P1′-Asp peptides for cyclization by A) VyPAL2, B) butelase-1 and C) OaAEP1b. Quantitative summary of reaction yields of the reaction mixtures. For each reaction, 25 nM of the enzyme and 5 μM of the peptide substrate (21a-21i) were mixed and reacted at pH 4.5, 25° C. for 60 min. The positive control peptide 21j was performed at the same conditions except at pH 7.4. Average yields and SDs were calculated from experiments performed in triplicate. The amino acid sequence of the peptides used are set forth in SEQ ID Nos. 15-24.
FIG. 10. Ligation activity of three different ligases under different pH and substrate. Cyclization activity of A) VyPAL2, B) Butelase-1 or C) OaAEP1b towards substrate 21e-DSL and 21j-NGL; Fold difference was calculated using the cyclization rate of 21j-NGL divided by that of 21e-DSL. All the results were the average reaction rate at different pH in triplicate experiments based on MALDI-TOF analysis. Light grey text in the “Fold difference” axis marks to the maximum fold difference.
FIG. 11. Enzymatic activity of three different ligases on the cyclization reaction of P1-Asp peptide 21e-DSL or 21a-DGL and P1-Asn-peptide 21j-NGL. A) Scheme of PAL-mediated P1-Asp peptide cyclization; B) Enzymatic kinetics of VyPAL2 in cyclizing 21e-DSL at pH 4.5; C) Enzymatic kinetics of VyPAL2 in cyclizing 21e-DSL at pH 7.0; D) Enzymatic kinetics of OaAEP1b in cyclizing 21a-DGL at pH 5.5; E) Enzymatic kinetics of Butelase-1 in cyclizing 21e-DSL at pH 4.5. F) Scheme of PAL-mediated cyclization of peptide 21j-NGL; G). Enzymatic kinetics of butelase-1 in cyclizing […] at pH 4.5; H)
Enzymatic kinetics of VyPAL2 in cyclizing 21j-NSL at pH 4.5; I) Enzymatic kinetics of butelase-1 in cyclizing 21j-NSL at pH 7.4; J) Enzymatic kinetics of OaAEP1b in cyclizing 21j-NSL at pH 7.0. Sequences of peptides used are set forth in SEQ ID Nos. 15, 19, 24.
PALs recognize a tripeptide motif Asx-P1′-P2′ in the acyl donor substrate for their catalyzed ligation reactions. Because the formation of the acyl-enzyme thioester intermediate is the rate-limiting step, the leaving group P1′-P2′ also plays an important role in determining the catalytic kinetics of a particular 40 PAL-mediated reaction. Previous studies have determined Leu as a preferred P2′ residue. To identify the most favorable P1′ residues for PAL-catalyzed Asp-ligation, a panel of peptides (peptide 21a-21j) with C-terminal DXL and N-terminal GI motifs was synthesized and cyclization reactions performed. Peptide 21j with a C-terminal NGL, a P1-Asn peptide favored by VyPAL2, was used for comparison with the P1-Asp peptides 21a-21i. […] Meanwhile, the P1′ substrate specificities of the two other ligases - Butelase-1 and OaAEP1b - were also evaluated by using the same substrates 21a-21j.
A pH scan experiment with the other two ligases: butelase-1 and OaAEP1 b, for their cyclase activity on 21e and 21j was also conducted. […] In fact, the difference in reaction efficiency between 21j and 21e was about 950 times at pH 7.4 (FIG. 10). […] This makes VyPAL2 a more efficient ligase than butelase-1 for Asp-mediated protein modification.

[3] = target: T1, Peptide 21j (SEQ ID NO:24), GISTKSIPPISYRNGL
T1 chain: GISTKSIPPISYRNGL

[4] = target: T2, Peptide 7 (SEQ ID NO:11), Ac-KKLAVINGF
T2 chain: KKLAVINGF

[5] = target: T3, Peptide 5 (SEQ ID NO:10), GFGGIKA
T3 chain: GFGGIKA

[6] = target: T4, Peptide 21e (SEQ ID NO:19), GISTKSIPPISYRDSL
T4 chain: GISTKSIPPISYRDSL

[7] = target: T5, Peptide 1 (SEQ ID NO:7), Ac-KKLAVINHV
T5 chain: KKLAVINHV

Row | Molecule | Km (butelase-1 [1]) | kcat (butelase-1 [1]) | Km (VyPAL2) | kcat (VyPAL2) | catalytic activity/efficiency of VyPAL2 relative to butelase-1 towards the substrate (VyPAL2) | Km, cyclization at pH 4.5 [3] | Km, cyclization at pH 7.4 [3] | kcat, cyclization at pH 4.5 [3] | kcat, cyclization at pH 7.4 [3] | kcat/Km, cyclization at pH 4.5 [3] | kcat/Km, cyclization at pH 7.4 [3] | Km, intermolecular ligation of peptide 7 (varied) with nucleophile peptide 2 [4] | kcat, intermolecular ligation of peptide 7 (varied) with nucleophile peptide 2 [4] | kcat/Km, intermolecular ligation of peptide 7 (varied) with nucleophile peptide 2 [4] | Km, intermolecular ligation of GF-peptide 5 (varied) with acyl substrate peptide 4 [5] | kcat, intermolecular ligation of GF-peptide 5 (varied) with acyl substrate peptide 4 [5] | kcat/Km, intermolecular ligation of GF-peptide 5 (varied) with acyl substrate peptide 4 [5] | Km, cyclization at pH 4.5 [6] | kcat, cyclization at pH 4.5 [6] | kcat/Km, cyclization at pH 4.5 [6] | other results
1 | GFGGIKA (GFGGIKA-NH2) [Peptide 5] | 365 ± 3 µM | 1.55 ± 0.01 S^−1 | 424 ± 26 µM | 8.29 ± 0.48 S^−1 | 5 times | – | – | – | – | – | – | – | – | – | – | – | – | – | – | – | –
2 | GISTKSIPPISYRDQL (GISTKSIPPISYRDQL-NH2) [Peptide 21h] | – | – | – | – | – | – | – | – | – | – | – | – | – | – | – | – | – | – | – | – | substrate preference among P1-Asp peptides (butelase-1 [2]): slight preference
3 | Ac-KKLAVINGF (Ac-KKLAVINGF-NH2) [Peptide 7] | 175 ± 1 µM | 0.46 ± 0.04 S^−1 | 155 ± 15 µM | 1.10 ± 0.03 S^−1 | about 3 times | – | – | – | – | – | – | – | – | – | – | – | – | – | – | – | –
4 | B1 | – | – | – | – | – | 28.4 µM | 25.8 µM | 1.9 s⁻¹ | 5.5 s⁻¹ | 67000 ± 3230 M^-1s^-1 | 214000 ± 3900 M^-1s^-1 | 155 µM | 1.1 S^-1 | 7220 M^-1S^-1 | 424 µM | 8.29 S^-1 | 19600 M^-1S^-1 | 25.6 µM | 0.28 s⁻¹ | 10900 ± 195 M^-1s^-1 | Vmax, cyclization at pH 7.4 [3]: with Vmax of 0.004 and 5.633 µM/min respectively; Km, cyclization at pH 7.0 [6]: 42.3 µM; Vmax, cyclization at pH 7.4 [6]: with Vmax of 0.004 and 5.633 µM/min respectively; kcat, cyclization at pH 7.0 [6]: 0.021 s⁻¹; kcat/Km, cyclization at pH 7.0 [6]: 752 M^-1s^-1; kcat/Km, cyclization at pH 7.0 (value in running text, differs from Table 2) [6]: kcat/Km as ˜847±123 M -1 5 1; Km, intermolecular ligation of peptide 1 (varied) with nucleophile peptide 2 [7]: 182 µM; kcat, intermolecular ligation of peptide 1 (varied) with nucleophile peptide 2 [7]: 0.17 S^-1; kcat/Km, intermolecular ligation of peptide 1 (varied) with nucleophile peptide 2 [7]: 932 M^-1S^-1
5 | B2 | – | – | – | – | – | 12.7 µM | 13.5 µM | 0.6 s⁻¹ | 9.4 s⁻¹ | 47100 ± 3740 M^-1s^-1 | 714200 ± 5390 M^-1s^-1 | 175 µM | 0.46 S^-1 | 2650 M^-1S^-1 | 365 µM | 1.55 S^-1 | 4260 M^-1S^-1 | 16.6 µM | 0.11 s⁻¹ | 7210 ± 489 M^-1s^-1 | Km, intermolecular ligation of peptide 1 (varied) with nucleophile peptide 2 [7]: 85 µM; kcat, intermolecular ligation of peptide 1 (varied) with nucleophile peptide 2 [7]: 1.47 S^-1; kcat/Km, intermolecular ligation of peptide 1 (varied) with nucleophile peptide 2 [7]: 17300 M^-1S^-1
